The values below are quoted from earlier work in publication PMC6431256.

In the data set the target is tau peptide (Homo sapiens) (UniProt P10636). Briefly: ITC. A general note: Isothermal titration calorimetry measures the heat released or taken up as one component is titrated into another.
tau peptide (Homo sapiens), sequence (P10636 2-758): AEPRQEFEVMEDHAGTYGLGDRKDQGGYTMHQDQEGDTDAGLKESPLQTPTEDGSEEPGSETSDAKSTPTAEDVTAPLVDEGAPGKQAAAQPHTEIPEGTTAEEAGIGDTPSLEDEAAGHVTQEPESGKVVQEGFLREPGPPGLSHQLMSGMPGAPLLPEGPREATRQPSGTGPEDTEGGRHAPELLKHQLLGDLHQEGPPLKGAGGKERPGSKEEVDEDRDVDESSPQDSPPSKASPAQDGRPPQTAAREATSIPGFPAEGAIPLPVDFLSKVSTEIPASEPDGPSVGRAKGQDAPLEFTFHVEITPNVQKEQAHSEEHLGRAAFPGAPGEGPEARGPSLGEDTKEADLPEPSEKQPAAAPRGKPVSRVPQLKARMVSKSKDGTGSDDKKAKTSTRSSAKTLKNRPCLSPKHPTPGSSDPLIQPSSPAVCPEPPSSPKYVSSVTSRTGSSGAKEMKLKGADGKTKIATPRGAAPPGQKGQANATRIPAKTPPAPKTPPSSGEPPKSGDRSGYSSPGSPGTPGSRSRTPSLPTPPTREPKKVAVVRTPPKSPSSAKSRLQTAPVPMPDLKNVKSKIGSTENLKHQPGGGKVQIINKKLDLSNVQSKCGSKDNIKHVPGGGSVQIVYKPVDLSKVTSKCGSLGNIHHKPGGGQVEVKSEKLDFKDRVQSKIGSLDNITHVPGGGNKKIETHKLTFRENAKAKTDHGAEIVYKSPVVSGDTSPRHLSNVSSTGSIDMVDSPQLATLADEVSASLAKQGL

Pin1, sequence (Q13526 whole entry): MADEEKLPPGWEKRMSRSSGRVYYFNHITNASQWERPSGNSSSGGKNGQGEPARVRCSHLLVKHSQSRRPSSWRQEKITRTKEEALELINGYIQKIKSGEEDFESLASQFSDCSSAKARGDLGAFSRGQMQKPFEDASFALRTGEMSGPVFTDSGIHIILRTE

With Pin1 (from UniProt Q13526), the dissociation constant Kd (as a rule, the concentration at which binding is half-saturated) was 200 µM.
